System: MS2 coat protein
Experiment: apparent KD of MS2 coat protein; designed switch direction (-1 OFF switch, 1 ON switch): -1; higher = weaker reporter binding
Outline: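 Designed RNA switches with common flanks were transcribed on Illumina chips by stalled E. coli RNA polymerase and titrated with SNAP-549-labelled MS2 coat protein, from 0.7 or 1.5 nM doubling to 3 µM, in Tris-HCl pH 7.5 buffer with KCl, MgCl2, BSA, DTT, tRNA and Tween-20. Steps lasted 0.8–1.5 h (lowest) to 10–20 min (highest). Titrations ran without input, with 200 uM small-molecule ligand, or with an oligonucleotide input. Normalised cluster fluorescence was curve-fitted, and apparent KD is the per-design median over clusters.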

[1] = Eterna round: R95, input ligand: FMN 200 uM
[2] = Eterna round: R95, input ligand: microRNA oligo, concentration not stated
[3] = Eterna round: R95, input ligand: none
[4] = input ligand: microRNA oligo, concentration not stated

Sequence | apparent KD of MS2 coat protein [1] [nM] | apparent KD of MS2 coat protein [2] [nM] | apparent KD of MS2 coat protein [3] [nM] | apparent KD of MS2 coat protein (input ligand: FMN 200 uM) [nM] | apparent KD of MS2 coat protein [4] [nM] | apparent KD of MS2 coat protein (input ligand: none) [nM]
AUAAGCUUUUAAAUCCUUAACAUGAGGAUCACCCAUGUUCGUCUUAUGAUGGUCUGAUCCCUGAGGAUCGGACCGUU [JL-sv1-2.03 Brourd Mod] (puzzle: Sensor v3, turn-off variant 1) | 29.2 | 95 | 30.9 |  |  | 
UACAUGAGGAUCACCCAUGUUUUGUCGUGUAUGGUAUUUAUCUAGGAUAUCAAUGUAUUUAGUUAUGAGAAGGAGAAUAUUAAU [JMF's solution 46] (Eterna round: R96, puzzle: Exclusion NG 3) |  |  |  | 38.1 | 32 | 35.3
UUAAUGAUUGUGAGGAUAUUUCAUAGAUAGAUAUUAGAGAAGGUACAUGAGGAUCACCCAUGUGUGAUUAGAGA [Brourd's EX4 #71] (Eterna round: R97, puzzle: Brourd's mod of Exclusion 4) |  |  |  | 89.7 |  | 93.5
UAUGGGUCUACAGGAUAUUCCAGUAGAUAGAAGGGAGAAGGGUGGGCCUAUACUUGAGGAUCACCCAAGUGAAAAGGGUCAUCC [Mutated MS2 EX1.13] (Eterna round: R96, puzzle: Exclusion NG 1) |  |  |  | 27.9 | 24.8 | 36.6
GCCGAAAGUGUGAGGAUAUACCUAUGGAUACAUAGGUAGAAGGCACAUGAGGAUCACCCAUGUGGGAAAACGGC [Eli bmx4 4.30] (Eterna round: R97, puzzle: Brourd's mod of Exclusion 4) |  |  |  | 1140 |  | 190
GGUUAUUGCAAGGAUAUGCUUUUUUUUGAUAUUGCAGAAGGUGCAACAUGAGGAUCACCCAUGUUGGAGGGAUU [JR_E6_Sub020] (puzzle: Exclusion 6) |  | 32.7 |  |  |  | 
UUUAAUUUUUUUUUUUUACAAGCUUUUUGCUCGUCUUAUACAUGAGGAUCACCCAUGUAAGUGGGAGGUAAAUUAUC [JMF 76] (puzzle: Sensor v3, turn-off variant 2) | 54.3 | 201 | 102 |  |  | 
UGAUCUUGAGUCAGGAUAUGCUGGUAUUUUUACCAGCAGAAGGGACAUGAGGAUCACCCAUGUUCUCACUUUUU [Magic-13] (puzzle: Brourd's mod of Exclusion 4) |  | 10.5 |  |  |  | 
CCUAGUUGGUAAGGAUAUCCUACACUGUUCUGACCCGGGCAUGCUACAUGAGGAUCACCCAUGUGGGAGAAGGUGCGUCAUCGC [Design 15] (Eterna round: R96, puzzle: Exclusion NG 2) |  |  |  | 30.5 | 27.1 | 37.3
AAGCUGUCAGGAUAUCGUUAAUUUAGUUGUUUGUAUUAGUUCGAGAAGGGACAUGAGGAUCACCCAUGUAUGUA [Ex4 #39] (Eterna round: R97, puzzle: Exclusion 4) |  |  |  | 76.3 |  | 34.2
AAACGCUGAGGAUAUAUAUAACAACAAAGCCUCACGUGCCAACAUGAGGAUCACCCAUGUAGAAGGCAGCCCAA [Mod R3 Insanara 12 - Jieux - Exclusion 2] (Eterna round: R97, puzzle: Exclusion 2) |  |  |  | 15.8 |  | 14.1
GUCAGCUCGUCAGGAUAUGCACAUGAGGAUCACCCAUGUAAGAUCAAGCUGCUUCGGCAGCAAGUGCAGAAGGGACGAGCUGAU [ENG2/9-B3] (Eterna round: R96, puzzle: Exclusion NG 2) |  |  |  | 156 | 214 | 294
UUGUAACAUGAGGAUCACCCAUGUGAGGAUAUGGUUAAGUAAUGUAAUGUAAAGUAAUCCAGAAGGCACAAGUU [1st #23] (Eterna round: R97, puzzle: Exclusion 1) |  |  |  | 70.3 |  | 78.3
CCAAUGUAAGGAUAUCGUGCAAGUUUCAAAAGAGGCUUGUGCGAGAAGGUACAUGAGGAUCACCCAUGUAGGUU [Omei Ex4 B2] (Eterna round: R97, puzzle: Exclusion 4) |  |  |  | 340 |  | 78.4
GCCUUAUCCGUCAGGAUAUACAUUUUUUUUUUUUUGUAGAAGGGACAUGAGGAUCACCCAUGUACAUUACAUUG [alecazam17] (Eterna round: R97, puzzle: Brourd's mod of Exclusion 4) |  |  |  | 41 |  | 22.9
GAAAUACAUGAGGAUCACCCAUGUAAGGAUAUGCUAGCGGUCGGCUGACUGACUGCUAGCAGAAGGUACAUGAU [Mat - Mod of JL D81] (puzzle: Exclusion 1) |  | 67.5 |  |  |  | 
CUUUUGUGAGGAUAUUAGUAGUAAAUAAAUUAAAUUACUACUGAGAAGGCACAUGAGGAUCACCCAUGUUCCUC [salish99_ex4_r3_057] (Eterna round: R96, puzzle: Exclusion 4) |  |  |  | 428 | 32.8 | 36.6
